Molecular target: the molecule itself
Experiment: SEC-MALS

B1: cerato-platanin-like protein 1 (Cpl1) from Ustilago maydis, tag-free recombinant protein (natural protein, UniProt A0A0D1E4Q7 22-240, looked up)
chain: AVDITFTSGKFNRRDDSTVVKQKNPEFGMNLANQYIIRKGAGLPPAKDVKETYPECKWRHYAGSFGWLDDYNVQCYLSPSYKFHAHSIAKAFKAEPSTKAGACFDTANTDQFPEGVPKYSIGVPYLYMNNLYDRRCKVRAMVKIPKTDEHEEKWVQAWVIDHNLGNWDKDGKENDAYPKDGVLIDTNMYEQFFDKNKKVPDYSKTVPVEWFFLDINTVG
stoichiometry N: 2

Reference: paper doi:10.1101/2022.07.21.500954 (bioRxiv, 2022)
